Test [1] deals with T1, TGF-β type I receptor (TRI) (human (endogenous in HeLa)), P36897.
T1 chain: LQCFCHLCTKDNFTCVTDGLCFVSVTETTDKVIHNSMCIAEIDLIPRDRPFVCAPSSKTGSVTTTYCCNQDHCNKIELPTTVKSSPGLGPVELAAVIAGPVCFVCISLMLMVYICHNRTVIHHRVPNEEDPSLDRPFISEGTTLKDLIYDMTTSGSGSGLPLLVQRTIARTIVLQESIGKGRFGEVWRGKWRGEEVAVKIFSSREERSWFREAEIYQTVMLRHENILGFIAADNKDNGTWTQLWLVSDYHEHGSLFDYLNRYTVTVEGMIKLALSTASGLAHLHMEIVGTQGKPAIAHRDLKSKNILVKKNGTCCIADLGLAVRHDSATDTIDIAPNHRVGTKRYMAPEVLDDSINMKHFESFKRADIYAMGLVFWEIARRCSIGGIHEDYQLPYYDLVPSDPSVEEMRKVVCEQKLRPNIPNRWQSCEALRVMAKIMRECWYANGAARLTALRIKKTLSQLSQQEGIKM
Description: live-cell single-molecule TIRFM tracking (membrane on-times); EGFP-Smad3 or EGFP-M-Smad3 at low expression in living HeLa cells, unstimulated; 10 Hz; cumulative histograms of on-times fitted with a single exponential. The settings on record: remark: other sources report otherwise.

Test [2] deals with T1, TGF-β type I receptor (TRI) (human …). Description: live-cell single-molecule TIRFM tracking (membrane on-times); EGFP-Smad3 or EGFP-M-Smad3 at low expression in living HeLa cells treated with 10 ng/ml TGF-β1 for 15 min at 37 °C; 10 Hz; cumulative histograms of on-times fitted with a single exponential. The following applies: remark: other sources report otherwise.

B1: EGFP-Smad3, P84022 1-425 (natural protein)
chain: MSSILPFTPPIVKRLLGWKKGEQNGQEEKWCEKAVKSLVKKLKKTGQLDELEKAITTQNVNTKCITIPRSLDGRLQVSHRKGLPHVIYCRLWRWPDLHSHHELRAMELCEFAFNMKKDEVCVNPYHYQRVETPVLPPVLVPRHTEIPAEFPPLDDYSHSIPENTNFPAGIEPQSNIPETPPPGYLSEDGETSDHQMNHSMDAGSPNLSPNPMSPAHNNLDLQPVTYCEPAFWCSISYYELNQRVGETFHASQPSMTVDGFTDPSNSERFCLGLLSNVNRNAAVELTRRHIGRGVRLYYIGGEVFAECLSDSAIFVQSPNCNQRYGWHPATVCKIPPGCNLKIFNNQEFAALLAQSVNQGFEAVYQLTRMCTIRMSFVKGWGAEYRRQTVTSTPCWIELHLNGPLQWLDKVLTQMGSPSIRCSSVS
For the molecule B1, in test [1], the koff was determined as 1.96 s⁻¹ and the time constant of membrane on-times (τu) amounted to 0.51 s. In test [2], this molecule came in with a koff of 1.67 s⁻¹ and a time constant of membrane on-times (τs) of 0.6 s.

As a reminder, the koff is the first-order rate constant of dissociation.

The values are drawn from PMC5027577.
